According to article PMC5030711, “Investigation of SP94 Peptide as a Specific Probe for Hepatocellular Carcinoma Imaging and Therapy” (Scientific Reports, 2016):
“And” between values parts separate entries of the source, which are not always exact repeats. Equal entries are not always repeated. “Also recorded” adds a separate entry of the source. Residues, ends and D or L forms follow the SMILES beside them. *: point of attachment. HYNIC = NNc1ccc(C(=O)*)cn1

Key:
Huh-7 cells = type: binding, human; conditions: 2 h
Experimental: The binding affinity of HYNIC-SP94 was assessed via a competitive displacement assay with ^99mTc tricine-EDDA/HYNIC-SP94[35]. Briefly, Huh-7 cells (1 × 10^6) and ^99mTc tricine-EDDA/HYNIC-SP94 (370 kBq) were added to each test tube in the presence of increasing concentrations of the SP94 peptide (from 0.001 nM to 10000 nM) and incubated for 2 h at 37 °C. To remove unbound ^99mTc tricine-EDDA/HYNIC-SP94, the cells were washed three times with cold PBS (1×, pH 7.2) and then centrifuged (600 rpm, 5 min). Radioactivity was determined using a γ-counter. The IC50 value was calculated by fitting experimental data with nonlinear regression using GraphPad Prism (GraphPad Software, San Diego, CA, USA).

[1] = In vivo stability (RP-HPLC of plasma); design: species or system balb/c mice; conditions: within 60 min after tail vein injection (~30 MBq/mouse)
Experimental: The in vivo stability of ^99mTc tricine-EDDA/HYNIC-SP94 was evaluated in balb/c mice. ^99mTc tricine-EDDA/HYNIC-SP94 (~30 MBq/mouse) in 0.1 mL of saline was injected via the tail vein. Blood was then taken from the heart 10, 30, 60, 120 and 240 min after injection under anesthesia. Blood was collected in a heparin tube and immediately centrifuged (5000 rpm, 5 min) to obtain plasma. A total of 400 μL methanol/trichloromethane (V/V: 4/1) was added to 400 μL of plasma, fully mixed and centrifuged (5000 rpm, 5 min). RP-HPLC analysis was performed with 20 μL supernatant loading filtered by a 0.22 μm filter. The RP-HPLC was equipped with a Zorbax Eclipse XDB-C18 column (4.6 × 150 mm) and the following gradients were used at a flow rate of 1 mL/min: 98% solvent A (0.1% trifluoroacetic in 100% water) and 2% solvent B (0.09% trifluoroacetic in 80% ACN and 20% water): 0~5 min; 2% solvent A and 98% solvent B: 5~10 min; 98% solvent A and 2% solvent B: 10~15 min.

[2] = In vitro stability of ^99mTc-labeled complexes (radio-TLC); type: in vitro ADME; conditions: PBS, normal saline and FBS, 37 °C, 1-12 h
Experimental: The in vitro stability of the radiolabeled peptide was tested by incubating it in PBS, saline and FBS for 1, 2, 4, 6 and 12 h at 37 °C. After incubation, ^99mTc-labeled complexes were assessed by radio-TLC. Results were plotted as the RCP (%) at different time points.

Huh-7 tumor-bearing mice = experiment: Biodistribution study; type: in vivo, balb/c nude mice; conditions: mean ± SD; for Tumor uptake: Huh-7 tumor; for Tumor/muscle: ratio
Description: Four- to six-week-old male athymic nude mice were used for preparation of the xenograft tumor models. Huh-7 and Hela cells were subcutaneously injected at a concentration of 5 × 10^6 cells/mouse in the right front flank of the mice. The mice were ready for biodistribution and microSPECT/CT imaging study when the tumors reached an average diameter of 0.8~1.0 cm (3~4 weeks after inoculation). Animal care and experimental procedures were accordant with the Helsinki Declaration and were approved by the institutional animal care committee.
Fifteen Huh-7 tumor-bearing mice were randomly divided into three groups. ^99mTc tricine-EDDA/HYNIC-SP94 (~0.74 MBq/mouse) in 0.1 mL of saline was injected via tail vein. At 0.5 and 1.5 h p.i., the mice were anesthetized via 2% isoflurane and sacrificed by cervical dislocation. Immediately after sacrifice, the blood, tumors and organs of interest (heart, lungs, liver, spleen, stomach, small intestine, large intestine, kidneys, muscle and thyroid) were harvested, washed with saline and weighed. Radioactivity was determined using a γ-counter. To determine the specific uptake of ^99mTc tricine-EDDA/HYNIC-SP94, 5 mice received an intravenous injection of 200 μg of unlabeled HYNIC-SP94 as a blocking agent 30 min prior to injection of ^99mTc tricine-EDDA/HYNIC-SP94 (~0.74 MBq/mouse). The mice were sacrificed 30 min p.i. and the experiments performed as described above. Absorption of organs and tissues was calculated as a percentage of the injected dose per gram of tissue mass (%ID/g).

[3] = In vitro stability of ^188Re-HYNIC-SP94 (radio-TLC); type: in vitro ADME; conditions: FBS, room temperature, 48 h, mean ± SD
Experimental: The in vitro stability of ^188Re-HYNIC-SP94 was evaluated by incubating ^188Re-HYNIC-SP94 in normal saline and FBS at room temperature. RCP was analyzed by radio-TLC at 1, 4, 8, 18, 26 and 48 h after incubation to determine the stability.

[4] = 0.5 h p.i., blocking: 200 μg unlabeled HYNIC-SP94 i.v. 30 min prior

CC[C@H](C)[C@H](NC(=O)[C@H](CO)NC(=O)[C@H](Cc1ccccc1)NC(=O)[C@H](CO)NC(=O)c1ccc(NN)nc1)C(=O)N[C@H](C(=O)N[C@@H](Cc1c[nH]cn1)C(=O)N[C@H](C(=O)N1CCC[C@H]1C(=O)N[C@H](C(=O)N[C@@H](CC(C)C)C(=O)N1CCC[C@H]1C(=O)N[C@@H](CC(C)C)C(=O)O)[C@@H](C)CC)[C@@H](C)O)[C@@H](C)CC [HYNIC-SP94, 6-hydrazinonicotinic acid-SP94] ({HYNIC}-SFSIIHTPILPL-OH)
IC50 (Huh-7 cells): 4.49 ± 0.2 nM

CC[C@H](C)[C@H](NC(=O)[C@H](CO)NC(=O)[C@H](Cc1ccccc1)NC(=O)[C@H](CO)NC(=O)c1ccc(NN)nc1)C(=O)N[C@H](C(=O)N[C@@H](Cc1c[nH]cn1)C(=O)N[C@H](C(=O)N1CCC[C@H]1C(=O)N[C@H](C(=O)N[C@@H](CC(C)C)C(=O)N1CCC[C@H]1C(=O)N[C@@H](CC(C)C)C(=O)O)[C@@H](C)CC)[C@@H](C)O)[C@@H](C)CC [^99mTc tricine-EDDA/HYNIC-SP94, metal not drawn] ({HYNIC}-SFSIIHTPILPL-OH)
radiochemical purity (RCP) maintained in vivo [1]: about 66% | in vitro stability (RCP) [2]: highly stable; also recorded: slightly better | Blood uptake (Huh-7 tumor-bearing mice; 0.5 h p.i., blocking): 0.99 ± 0.12 %ID/g | Blood uptake (Huh-7 tumor-bearing mice; 0.5 h p.i., non-blocking): 1.17 ± 0.37 %ID/g | Blood uptake (Huh-7 tumor-bearing mice; 1.5 h p.i., non-blocking): 0.49 ± 0.08 %ID/g | Heart uptake (Huh-7 tumor-bearing mice; [4]): 0.58 ± 0.03 %ID/g | Heart uptake (Huh-7 tumor-bearing mice; 0.5 h p.i., non-blocking, i.v. ~0.74 MBq/mouse): 0.54 ± 0.13 %ID/g | Heart uptake (Huh-7 tumor-bearing mice; 1.5 h p.i., non-blocking): 0.34 ± 0.03 %ID/g | Tumor uptake (Huh-7 tumor-bearing mice; [4]): 0.34 ± 0.09 %ID/g | Tumor uptake (Huh-7 tumor-bearing mice; 0.5 h p.i., non-blocking): 1.02 ± 0.26 %ID/g | Tumor uptake (Huh-7 tumor-bearing mice; 1.5 h p.i., non-blocking): 0.74 ± 0.07 %ID/g | Kidney uptake (Huh-7 tumor-bearing mice; 0.5 h p.i., blocking): 7.58±2.25 %ID/g | Kidney uptake (Huh-7 tumor-bearing mice; 0.5 h p.i., non-blocking): 7.40 ± 2.66 %ID/g | Kidney uptake (Huh-7 tumor-bearing mice; 1.5 h p.i., non-blocking): 6.14 ± 0.10 %ID/g | Large intestine uptake (Huh-7 tumor-bearing mice; 0.5 h p.i., blocking): 0.54 ± 0.08 %ID/g | Large intestine uptake (Huh-7 tumor-bearing mice; 0.5 h p.i., non-blocking): 0.70 ± 0.09 %ID/g | Large intestine uptake (Huh-7 tumor-bearing mice; 1.5 h p.i., non-blocking): 0.48 ± 0.02 %ID/g | Liver uptake (Huh-7 tumor-bearing mice; 0.5 h p.i., blocking): 2.07 ± 0.20 %ID/g | Liver uptake (Huh-7 tumor-bearing mice; 0.5 h p.i., non-blocking): 2.39 ± 1.55 %ID/g | Liver uptake (Huh-7 tumor-bearing mice; 1.5 h p.i., non-blocking): 1.98 ± 0.15 %ID/g | Lung uptake (Huh-7 tumor-bearing mice; 0.5 h p.i., blocking): 2.06 ± 0.18 %ID/g | Lung uptake (Huh-7 tumor-bearing mice; 0.5 h p.i., non-blocking): 2.10 ± 0.43 %ID/g | Lung uptake (Huh-7 tumor-bearing mice; 1.5 h p.i., non-blocking): 1.45 ± 0.04 %ID/g | Muscle uptake (Huh-7 tumor-bearing mice; 0.5 h p.i., blocking): 0.23 ± 0.05 %ID/g | Muscle uptake (Huh-7 tumor-bearing mice; 0.5 h p.i., non-blocking): 0.30 ± 0.05 %ID/g | Muscle uptake (Huh-7 tumor-bearing mice; 1.5 h p.i., non-blocking): 0.16 ± 0.02 %ID/g | Small intestine uptake (Huh-7 tumor-bearing mice; 0.5 h p.i., blocking): 0.78 ± 0.11 %ID/g | Small intestine uptake (Huh-7 tumor-bearing mice; 0.5 h p.i., non-blocking): 0.97 ± 0.22 %ID/g | Small intestine uptake (Huh-7 tumor-bearing mice; 1.5 h p.i., non-blocking): 0.73 ± 0.07 %ID/g | Spleen uptake (Huh-7 tumor-bearing mice; 0.5 h p.i., blocking): 1.05 ± 0.27 %ID/g | Spleen uptake (Huh-7 tumor-bearing mice; 0.5 h p.i., non-blocking): 0.84 ± 0.30 %ID/g | Spleen uptake (Huh-7 tumor-bearing mice; 1.5 h p.i., non-blocking): 0.67 ± 0.04 %ID/g | Stomach uptake (Huh-7 tumor-bearing mice; 0.5 h p.i., blocking): 0.84 ± 0.06 %ID/g | Stomach uptake (Huh-7 tumor-bearing mice; 0.5 h p.i., non-blocking): 0.85 ± 0.18 %ID/g | Stomach uptake (Huh-7 tumor-bearing mice; 1.5 h p.i., non-blocking): 0.68 ± 0.09 %ID/g | Thyroid uptake (Huh-7 tumor-bearing mice; 0.5 h p.i., blocking): 0.52 ± 0.04 %ID/g | Thyroid uptake (Huh-7 tumor-bearing mice; 0.5 h p.i., non-blocking): 0.47 ± 0.09 %ID/g | Thyroid uptake (Huh-7 tumor-bearing mice; 1.5 h p.i., non-blocking): 0.27 ± 0.03 %ID/g | Tumor/muscle (Huh-7 tumor-bearing mice; 0.5 h p.i., blocking): 1.56 ± 0.06 | Tumor/muscle (Huh-7 tumor-bearing mice; 0.5 h p.i., non-blocking): 3.96 ± 0.06 | Tumor/muscle (Huh-7 tumor-bearing mice; 1.5 h p.i., non-blocking): 4.55 ± 0.10

CC[C@H](C)[C@H](NC(=O)[C@H](CO)NC(=O)[C@H](Cc1ccccc1)NC(=O)[C@H](CO)NC(=O)c1ccc(NN)nc1)C(=O)N[C@H](C(=O)N[C@@H](Cc1c[nH]cn1)C(=O)N[C@H](C(=O)N1CCC[C@H]1C(=O)N[C@H](C(=O)N[C@@H](CC(C)C)C(=O)N1CCC[C@H]1C(=O)N[C@@H](CC(C)C)C(=O)O)[C@@H](C)CC)[C@@H](C)O)[C@@H](C)CC [^188Re-HYNIC-SP94, metal not drawn] ({HYNIC}-SFSIIHTPILPL-OH)
RCP after incubation [3]: 91.67 ± 2.36% and > 90%
